# From US12454572B2, “Methods of treating anemia in myelodysplastic syndromes” (Dana-Farber Cancer Institute, Inc., priority 2021, dated 2025)
# “Also recorded” adds a separate entry of the source. Like-named read-outs stand apart in the source and are kept apart here.
# T1: IL-22 (Mus musculus, UniProt Q9JJY9)
# T1 sequence (Q9JJY9 34-179): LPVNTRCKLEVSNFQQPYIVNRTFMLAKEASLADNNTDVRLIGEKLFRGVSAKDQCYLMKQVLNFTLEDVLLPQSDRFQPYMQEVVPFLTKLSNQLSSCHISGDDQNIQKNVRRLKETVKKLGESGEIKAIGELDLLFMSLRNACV
# B1: rIL-22: recombinant IL-22 (PeproTech / Cell Signaling) (protein, UniProt Q9JJY9 34-179, looked up)
# Interleukin-22: T1 sequence (Q9JJY9 34-179)
# Assays:
# [1] = tested on: MDS patients; details: cited from earlier work
# [2] = biological target: T1, IL-22; details: cited from earlier work
# [3] = biological target: T1, IL-22; assay: IL-22 neutralization with anti-IL-22 antibody in mice undergoing PhZ-induced stress erythropoiesis; format: in vivo; parameters: endogenous in cells; host or cells: living mice (wt C57BL/6J; Riok2f/+Vav1cre and Riok2+/+Vav1cre); details: for frequency of apoptotic erythroid progenitors/precursors: viable BM cells
# Procedure: (§1) Phenylhydrazine (PhZ) was purchased from Sigma and injected intraperitoneally on 2 consecutive days (days 0 and 1) at a dose of 25 mg/kg. Peripheral blood was collected 3-4 days before the start of treatment and at day 4, 7 and 11. PhZ treatment experiments were carried out in 8-16 week-old mice.
# (§2) Monoclonal anti-IL-22 (Clone IL22JOP) blocking antibody and isotype control IgG2a (Clone eBR2a) were purchased from Thermo Fisher Scientific. Mice were administered anti-IL-22 (50 μg/mouse) or isotype intraperitoneally every 48 h until the conclusion of the experiment. For recombinant IL-22 treatment, mice were injected with recombinant IL-22 (500 ng/mouse; PeproTech) intraperitoneally every 24 h until the conclusion of the experiment.
# (§3) Mice were bled via the submandibular facial vein to collect blood in EDTA-coated tubes (BD MICROTAINER™ Capillary Blood Collector, BD 365974). Complete blood counts were obtained using the HemaVet CBC Analyzer (Drew Scientific) or Advia 120 (Siemens Inc.,) instruments.
# as §1, with “at the” for “at a”, “25 mg/kg (sublethal model) or 35 mg/kg (lethal model).” for “25 mg/kg.”, “4, 7,” for “4, 7”, “in 8-12 week old” for “in 8-16 week-old”
# (§4) Monoclonal anti-IL-22 (Clone IL22JOP) blocking antibody and isotype control IgG2aκ (Clone eBR2a) were purchased from Thermo Fisher Scientific. Mice were administered anti-IL-22 (50 μg/mouse) or isotype intraperitoneally every 48 h until the conclusion of the experiment. For recombinant IL-22 treatment, mice were injected with recombinant IL-22 (500 ng/mouse; PeproTech) intraperitoneally every 24 h until the conclusion of the experiment. Mice were administered these reagents at least five times before inducing PhZ-mediated anemia.
# [4] = biological target: T1, IL-22; assay: anti-IL-22 antibody in naive, non-anemic wt C57BL/6J mice; format: in vivo; parameters: endogenous in cells; host or cells: living mice (wt C57BL/6J; Riok2f/+Vav1cre and Riok2+/+Vav1cre); details: healthy, anti-IL-22 vs isotype
# Procedure: as §2, §3, §4
# [5] = tested on: Lin- BM cells; assay: in vitro erythropoiesis assay (erythroid differentiation of Lin- BM cells); format: cell-based, mouse; details: for p53 expression: culture treated with rIL-22 vs PBS
# Procedure: Whole BM cells were labeled with biotin-conjugated lineage antibodies (cocktail of anti-CD3ε, anti-CD11b, anti-CD45R/B220, anti-Gr1, anti-CD5, and anti-TER-119) (BD Pharmingen) and purified using anti-biotin beads and negative selection on the AutoMACS Pro (Miltenyi). Purified cells were then seeded in fibronectin-coated (2 μg/cm^2) tissue-culture treated polystyrene wells (CORNING® BIOCOAT™ Cellware) at a cell density of 10^5/mL. Erythroid differentiation was carried out according to modified published protocols. The erythropoietic medium was IMDM supplemented with erythropoietin at 10 U/mL, 10 ng/mL stem cell factor SCF, PeproTech), 10 μM Dexamethasone (Sigma-Aldrich), 15% FBS, 1% detoxified BSA (StemCell Technologies), 200 μg/mL holotransferrin (Sigma-Aldrich), […] human insulin (Sigma-Aldrich), 2 mM L-glutamine, 0.1 mM β-mercaptoethanol, and penicillin-streptomycin. After 48 h, the medium was replaced by IMDM medium containing 20% FBS, 2 mM L-glutamine, 0.1 mM β-mercaptoethanol, and penicillin-streptomycin. 50% of the culture media was replaced after 48 h and cell density was maintained at 0.5×10^6/mL. Total culture period for the assay was 6 days. Recombinant mouse IL-22 (PeproTech/Cell Signaling) was used where indicated.
# [6] = tested on: wild-type TH22 cells; assay: secreted IL-22 from in vitro polarized wild-type TH22 cells; format: cell-based, mouse; details: for secreted IL-22: pifithrin-α, p-nitro 1 μM, Nutlin-3 100 nM
# Procedure: Single-cell suspensions of mouse spleens were prepared by pressing tissue through a 70-μm cell strainer followed by red blood cell lysis using PharmLyse. Total splenic CD4^+ T cells were isolated using CD4 T cell isolation kit (Miltenyi Biotec). Enriched CD4^+ T cells were then incubated with fluorochrome-conjugated antibodies to CD4, CD8, CD25, CD62L, and CD44 to purify naïve CD4^+ T cells using fluorescence activated cell sorting (FACS). In the presence of 1 μg/mL plate-bound anti-CD3ε and soluble 1 μg/mL anti-CD28, T cell polarizations were carried out in IMDM supplemented with 10% FBS, 2 mM L-glutamine, […] penicillin-streptomycin, HEPES (pH 7.2-7.6), non-essential amino acids, 100 μM β-mercaptoethanol (BME), and sodium pyruvate as follows—TH1 (20 ng/mL IL-12, 10 μg/mL anti-IL-4), TH2 (20 ng/mL IL-4, 10 μg/mL anti-IFN-γ), TH17 (30 ng/mL IL-6, 20 ng/mL IL-23, 20 ng/mL IL-1β, 10 μg/mL anti-IL-4, 10 μg/mL anti-IFN-γ), Treg cells (1 ng/mL TGF-β, 10 μg/mL anti-IL-4, 10 μg/mL anti-IFN-γ), and TH22 (30 ng/mL IL-6, 20 ng/mL IL-23, 20 ng/mL IL-1β, 10 μg/mL anti-IL-4, 10 μg/mL anti-IFN-γ, 400 nM FICZ). Pifithrin-α, p-Nitro and Nutlin-3a were purchased from Santa Cruz Biotechnology and Tocris Biosciences, respectively.
# IL-22 in human samples was quantified using either Human IL-22 Quantikine ELISA Kit (D2200, R&D Systems) or SMCTM Human IL-22 High Sensitivity Immunoassay Kit (EMD Millipore, 03-0162-00) according to manufacturers' instructions. The SMC assay was read on a SMC Pro (EMD Millipore) instrument. The lower limit of quantification (LLOQ) of this immunoassay is 0.1 pg/mL. IL-22 in mouse samples was quantified using ELISA MAX™ Deluxe Set Mouse IL-22 (BioLegend, 436304). The LLOQ of this immunoassay is 3.9 pg/mL. S100A8 in human samples was quantified using Human S100A8 DuoSet ELISA (DY4570, R&D Systems).
# [7] = tested on: human CD34+ stem cells; details: cited from earlier work
# [8] = tested on: wild-type C57BL/6J mice; assay: recombinant IL-22 administration to wt C57BL/6J mice subsequently treated with PhZ; format: in vivo, mouse; details: for apoptosis of erythroid progenitors/precursors: in vivo
# Procedure: as §1, §2, §3
# as §1, with “at the” for “at a”, “25 mg/kg (sublethal model) or 35 mg/kg (lethal model).” for “25 mg/kg.”, “4, 7,” for “4, 7”, “in 8-12 week old” for “in 8-16 week-old”
# as §4
# [9] = tested on: Il22ra1f/fEporcre mice; assay: recombinant IL-22 administration to Il22ra1f/fEporcre mice subsequently treated with PhZ; format: in vivo, mouse; details: mice lacking the IL-22 receptor only on erythroid cells
# Procedure: as §1, with “at the” for “at a”, “25 mg/kg (sublethal model) or 35 mg/kg (lethal model).” for “25 mg/kg.”, “4, 7,” for “4, 7”, “in 8-12 week old” for “in 8-16 week-old”
# as §4
# [10] = Riok2 sufficient (Riok2+/+Vav1cre) mice, PhZ-induced anemia, vs isotype
# [11] = wt C57BL/6J mice undergoing PhZ-induced anemia, vs isotype
molecule,measurement,setting,value
etanercept,efficacy in MDS patients,"[1]; human, in vivo",ineffective
anti-IL-22 (Clone IL22JOP): Monoclonal anti-IL-22 blocking antibody purchased from Thermo Fisher Scientific; used in Examples 2-16,neutralization of IL-22,[2],effectively neutralize
same,PB RBCs,"[3]; Riok2f/+Vav1cre mice, PhZ-induced anemia, anti-IL-22 50 μg/mouse i.p. every 48 h vs isotype",anti-anemic effect; also recorded: increase
same,HCT,"[3]; Riok2f/+Vav1cre mice, PhZ-induced anemia, vs isotype",anti-anemic effect; also recorded: increase
same,frequency of apoptotic erythroid progenitors/precursors,"[3]; Riok2f/+Vav1cre mice, PhZ",reduced
same,anemia,"[3]; Riok2 haploinsufficient (Riok2f/+Vav1cre) mice, vs isotype",partially reversed; also recorded: alleviated
same,phenylhydrazine-induced anemia,[3]; Riok2 sufficient (Riok2+/+Vav1cre) mice,reversed
same,HCT,[3]; [10],anti-anemic effect; also recorded: increase
same,PB RBCs,[3]; [10],anti-anemic effect; also recorded: increase
same,frequency of apoptotic erythroid progenitors/precursors,"[3]; Riok2 sufficient mice, PhZ",reduced
same,anemia,[3]; wild-type mice undergoing PhZ-induced stress erythropoiesis,alleviated
same,HCT,[3]; [11],significantly increased
same,Hb,[3]; [11],significantly increased
same,PB RBCs,[3]; [11],increases; also recorded: significantly increased; also recorded: faster
same,frequency of RIII and RIV erythroid precursors in the BM,"[3]; wt C57BL/6J mice, PhZ, vs isotype",increased
same,HCT,[4],did not differ
same,Hb,[4],did not differ
same,PB RBCs,[4],did not differ
"N=c1sc2c(n1CC(=O)c1ccc([N+](=O)[O-])cc1)CCCC2 [pifithrin-α, p-nitro]",apoptosis induced by Riok2 haploinsufficiency,"[5]; IL-22-free assay, pifithrin-α, p-nitro 1 μM, Lin- BM cells from Riok2f/+Vav1cre mice",inhibited
same,secreted IL-22,[6],decreased
same,cell viability,[6]; viable cells by flow cytometry,did not decrease
CC(C)n1cnc2c(NCCc3ccc(O)cc3)nc(-c3csc4ccccc34)nc21 [Stemregenin 1],increase in erythroid colonies,[7]; SR1-pretreated CD34+ cells vs untreated cells,129 fold
same,pluripotency of human CD34+ stem cells,[7],maintain
same,ex vivo expansion of human HSCs,[7]; highest fold expansion seen in the erythroid lineage,promote
COc1ccc(C2=N[C@@H](c3ccc(Cl)cc3)[C@@H](c3ccc(Cl)cc3)N2C(=O)N2CCNC(=O)C2)c(OC(C)C)c1 [nutlin-3],cell viability,[6],did not decrease
same,secreted IL-22,[6],increased
Nc1cccc2c1CN(C1CCC(=O)NC1=O)C2=O (centres unmarked) [lenalidomide],extension of survival,[1]; HR-MDS group,4-6 months
same,extension of survival,[1]; LR-MDS patients,14-17 months
B1,BM erythroid progenitor/precursor cells (frequency and number),"[8]; 7 days after PhZ, vs PBS",decreased
same,PB RBCs,"[8]; rIL-22 500 ng/mouse i.p. every 24 h, then PhZ, vs PBS",decreased
same,BM reticulocytes,"[8]; rIL-22 i.p., PhZ",increase
same,PB reticulocytes,"[8]; rIL-22 i.p., PhZ",increase
same,apoptosis of erythroid progenitors/precursors,"[8]; rIL-22 i.p., PhZ",increased; also recorded: induced
same,apoptosis of erythroid progenitors/precursors,"[8]; rIL-22 i.p., PhZ, listed as recombinant IL-22",increase
same,HCT,"[8]; rIL-22 i.p., then PhZ, vs PBS",decreased
same,Hb,"[8]; rIL-22 i.p., then PhZ, vs PBS",decreased
same,PhZ-induced (stress-induced) anemia,[8]; wt mice,exacerbates
same,phenylhydrazine-induced anemia,[9],failed to exacerbate
same,p53 expression,[5],upregulation
same,p53 expression,[5]; listed as recombinant IL-22,induction
same,terminal erythropoiesis,"[5]; recombinant IL-22, dose response",dose-dependently decreased
